Results published in paper PMC9449495, “Transcription factor VvibHLH93 negatively regulates proanthocyanidin biosynthesis in grapevine”.

Assays:
VvibHLH93 [1] = molecular target: T1, VvibHLH93 (Vitis vinifera, UniProt A0ABY9CC89 1-331); assay: EMSA; LightShift Chemiluminescent EMSA Kit (Thermo Fisher) per manufacturer's protocol; buffer, salt, pH and temperature not stated; details: protein: recombinant, tags: His (pET-32a fusion), chain copies: 2
VvibHLH93 [2] = molecular target: T1, VvibHLH93; assay: competition; 50x unlabeled competitor vs N1; shifted band less abundant; LightShift Chemiluminescent EMSA Kit (Thermo Fisher) per manufacturer's protocol; buffer, salt, pH and temperature not stated; details: protein: recombinant; tags: His (pET-32a fusion); chain copies: 2

T1 sequence (A0ABY9CC89 entry or part of it): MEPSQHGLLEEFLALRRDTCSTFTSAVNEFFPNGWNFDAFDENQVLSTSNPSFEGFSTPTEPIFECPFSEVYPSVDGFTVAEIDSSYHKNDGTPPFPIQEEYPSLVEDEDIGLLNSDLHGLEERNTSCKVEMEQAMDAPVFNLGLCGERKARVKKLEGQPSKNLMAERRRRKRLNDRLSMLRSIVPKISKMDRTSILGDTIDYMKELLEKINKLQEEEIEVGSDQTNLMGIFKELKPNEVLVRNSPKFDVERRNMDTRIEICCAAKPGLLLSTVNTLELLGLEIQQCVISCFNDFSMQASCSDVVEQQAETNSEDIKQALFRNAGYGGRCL

B1: VviLAR1 promoter E/G-box mutant probe (dsDNA)
DNA 1: GAGTCGTTGAGGTATATCATTTTTTTGTTAGAAAATCTTATG
DNA 2: CATAAGATTTTCTAACAAAAAAATGATATACCTCAACGACTC
B1: no binding (VvibHLH93 [1]).

B2: VviLAR1 promoter E/G-box probe (tandem MYC and G-box) (dsDNA)
DNA 1: GAGTCGTTGAGGCACATGATTTTTTTGTTAGGACGTGTTATG
DNA 2: CATAACACGTCCTAACAAAAAAATCATGTGCCTCAACGACTC
B2: binds (VvibHLH93 [1]; label: 3' biotin).

B3: VviLAR1 promoter E/G-box cold probe (dsDNA)
DNA 1: B2 DNA 1
DNA 2: B2 DNA 2
B3: binds (VvibHLH93 [2]).
